Reference: PMC5780489, “Characterization of the multimeric structure of poly(A)-binding protein on a poly(A) tail” (Scientific Reports, 2018)

Target: T1, PABPC1 RRM1/2/3/4 (residues 1-370) (human, UniProt P11940 1-370)
T1 construct: human PABPC1, residues 1-370 (RRM1 to RRM4), cloned into pET-42b(+); Used in complex with long poly(A) or A24 RNA; Purification details are in the Supplementary methods; source: E. coli, purified (Glutathione-Sepharose 4B, GST cleaved off, cation exchange, gel filtration)
Assay: NMR titration; 1H-15N HSQC of 15N-labelled Lt2 (100 μM) with RRM1/2/3/4-A24 at 50, 100 and 150 μM; chemical shift changes of W437 side chain, W437 and T438 fitted to a 1:1 model; not saturated; 303 K, 26 mM NaH2PO4 pH 6.0, 100 mM NaCl
Conditions: both partners purified

T1 sequence (P11940 1-370): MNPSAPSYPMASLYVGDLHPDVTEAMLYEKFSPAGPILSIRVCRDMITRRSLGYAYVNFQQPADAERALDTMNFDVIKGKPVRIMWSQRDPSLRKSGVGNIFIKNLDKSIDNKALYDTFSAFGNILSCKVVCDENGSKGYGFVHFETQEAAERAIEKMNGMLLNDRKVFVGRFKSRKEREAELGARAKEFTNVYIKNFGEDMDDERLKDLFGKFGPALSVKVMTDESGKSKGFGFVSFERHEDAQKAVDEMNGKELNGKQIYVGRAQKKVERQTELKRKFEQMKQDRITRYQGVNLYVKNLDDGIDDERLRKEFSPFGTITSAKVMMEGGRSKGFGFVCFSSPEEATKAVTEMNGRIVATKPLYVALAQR

Kd: 10 to 54 µM
B1: PABPC1 linker fragment Lt2 (residues 421-470) (peptide, UniProt P11940 421-470, looked up)
chain: AYYPPSQIAQLRPSPRWTAQGARPHPFQNMPGAIRPAAPRPPFSTMRPAS
notes: human PABPC1, residues 421-470, cloned into pGEX-6p-1; Uniformly 15N-labelled for NMR
